{
  "source": "patent US20210071139A1",
  "experiment_in_all_cases": "TOX IP-MS, EL4 nuclear extract, MiST",
  "key": {"C1qc": {"target": "C1qc (UniProt Q02105)"}, "Utp14a": {"target": "Utp14a (UniProt Q640M1)", "sequence (Q640M1 whole entry)": "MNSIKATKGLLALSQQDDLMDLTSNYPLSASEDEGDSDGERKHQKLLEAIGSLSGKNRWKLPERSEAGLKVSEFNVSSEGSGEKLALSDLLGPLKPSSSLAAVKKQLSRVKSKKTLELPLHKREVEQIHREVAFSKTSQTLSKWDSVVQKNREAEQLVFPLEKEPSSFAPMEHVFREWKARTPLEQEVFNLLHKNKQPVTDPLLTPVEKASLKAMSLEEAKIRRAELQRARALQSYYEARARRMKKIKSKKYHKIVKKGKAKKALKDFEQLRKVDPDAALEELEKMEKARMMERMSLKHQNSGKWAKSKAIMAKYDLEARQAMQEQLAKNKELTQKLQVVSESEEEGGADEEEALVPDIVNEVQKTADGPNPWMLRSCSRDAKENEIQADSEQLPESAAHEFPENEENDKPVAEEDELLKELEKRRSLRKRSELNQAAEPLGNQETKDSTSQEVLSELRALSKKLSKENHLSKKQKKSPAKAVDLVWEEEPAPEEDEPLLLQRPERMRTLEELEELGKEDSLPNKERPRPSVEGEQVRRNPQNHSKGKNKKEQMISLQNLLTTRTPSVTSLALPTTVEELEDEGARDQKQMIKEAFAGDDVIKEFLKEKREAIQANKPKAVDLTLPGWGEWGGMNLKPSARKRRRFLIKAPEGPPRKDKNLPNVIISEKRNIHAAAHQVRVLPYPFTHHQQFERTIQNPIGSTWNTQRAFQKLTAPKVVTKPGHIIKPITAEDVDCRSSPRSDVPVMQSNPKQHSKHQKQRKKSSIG"}, "Tox4; Tox3": {"target": "Tox4; Tox3"}, "Rbm34": {"target": "Rbm34 (UniProt Q8C5L7)", "sequence (Q8C5L7 whole entry)": "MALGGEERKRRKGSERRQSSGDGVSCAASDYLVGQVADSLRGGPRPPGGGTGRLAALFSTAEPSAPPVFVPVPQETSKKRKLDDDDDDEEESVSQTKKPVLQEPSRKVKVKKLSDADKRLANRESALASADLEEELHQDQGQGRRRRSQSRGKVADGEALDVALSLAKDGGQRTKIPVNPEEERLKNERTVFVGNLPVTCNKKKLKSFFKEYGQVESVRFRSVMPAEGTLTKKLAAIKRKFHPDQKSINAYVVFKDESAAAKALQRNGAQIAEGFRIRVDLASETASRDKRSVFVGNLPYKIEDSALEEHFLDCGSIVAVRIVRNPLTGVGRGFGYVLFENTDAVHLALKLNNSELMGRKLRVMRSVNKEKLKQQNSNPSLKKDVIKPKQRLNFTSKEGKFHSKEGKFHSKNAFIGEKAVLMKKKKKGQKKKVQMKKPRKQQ"}, "Dnajc9": {"target": "Dnajc9 (UniProt Q91WN1)", "sequence (Q91WN1 whole entry)": "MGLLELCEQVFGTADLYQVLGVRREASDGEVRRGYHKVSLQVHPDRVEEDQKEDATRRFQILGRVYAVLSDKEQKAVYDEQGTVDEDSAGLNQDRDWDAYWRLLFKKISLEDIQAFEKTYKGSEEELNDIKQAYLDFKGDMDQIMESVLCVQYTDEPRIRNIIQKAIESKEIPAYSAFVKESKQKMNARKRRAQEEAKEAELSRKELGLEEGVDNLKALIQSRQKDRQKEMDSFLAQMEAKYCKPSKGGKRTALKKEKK"}, "Kntc1": {"target": "Kntc1 (UniProt Q8C3Y4)"}, "Meaf6": {"target": "Meaf6 (UniProt Q2VPQ9)"}, "Rpl36; Gm8973": {"target": "Rpl36; Gm8973"}, "Nusap1": {"target": "Nusap1 (UniProt Q9ERH4)"}, "Ccar1": {"target": "Ccar1 (UniProt Q8CH18)"}, "Rrp8": {"target": "Rrp8 (UniProt Q9DB85)"}, "Dlst": {"target": "Dlst (UniProt Q9D2G2)"}, "Prrc2a": {"target": "Prrc2a (UniProt Q7TSC1)", "sequence (Q7TSC1 whole entry)": "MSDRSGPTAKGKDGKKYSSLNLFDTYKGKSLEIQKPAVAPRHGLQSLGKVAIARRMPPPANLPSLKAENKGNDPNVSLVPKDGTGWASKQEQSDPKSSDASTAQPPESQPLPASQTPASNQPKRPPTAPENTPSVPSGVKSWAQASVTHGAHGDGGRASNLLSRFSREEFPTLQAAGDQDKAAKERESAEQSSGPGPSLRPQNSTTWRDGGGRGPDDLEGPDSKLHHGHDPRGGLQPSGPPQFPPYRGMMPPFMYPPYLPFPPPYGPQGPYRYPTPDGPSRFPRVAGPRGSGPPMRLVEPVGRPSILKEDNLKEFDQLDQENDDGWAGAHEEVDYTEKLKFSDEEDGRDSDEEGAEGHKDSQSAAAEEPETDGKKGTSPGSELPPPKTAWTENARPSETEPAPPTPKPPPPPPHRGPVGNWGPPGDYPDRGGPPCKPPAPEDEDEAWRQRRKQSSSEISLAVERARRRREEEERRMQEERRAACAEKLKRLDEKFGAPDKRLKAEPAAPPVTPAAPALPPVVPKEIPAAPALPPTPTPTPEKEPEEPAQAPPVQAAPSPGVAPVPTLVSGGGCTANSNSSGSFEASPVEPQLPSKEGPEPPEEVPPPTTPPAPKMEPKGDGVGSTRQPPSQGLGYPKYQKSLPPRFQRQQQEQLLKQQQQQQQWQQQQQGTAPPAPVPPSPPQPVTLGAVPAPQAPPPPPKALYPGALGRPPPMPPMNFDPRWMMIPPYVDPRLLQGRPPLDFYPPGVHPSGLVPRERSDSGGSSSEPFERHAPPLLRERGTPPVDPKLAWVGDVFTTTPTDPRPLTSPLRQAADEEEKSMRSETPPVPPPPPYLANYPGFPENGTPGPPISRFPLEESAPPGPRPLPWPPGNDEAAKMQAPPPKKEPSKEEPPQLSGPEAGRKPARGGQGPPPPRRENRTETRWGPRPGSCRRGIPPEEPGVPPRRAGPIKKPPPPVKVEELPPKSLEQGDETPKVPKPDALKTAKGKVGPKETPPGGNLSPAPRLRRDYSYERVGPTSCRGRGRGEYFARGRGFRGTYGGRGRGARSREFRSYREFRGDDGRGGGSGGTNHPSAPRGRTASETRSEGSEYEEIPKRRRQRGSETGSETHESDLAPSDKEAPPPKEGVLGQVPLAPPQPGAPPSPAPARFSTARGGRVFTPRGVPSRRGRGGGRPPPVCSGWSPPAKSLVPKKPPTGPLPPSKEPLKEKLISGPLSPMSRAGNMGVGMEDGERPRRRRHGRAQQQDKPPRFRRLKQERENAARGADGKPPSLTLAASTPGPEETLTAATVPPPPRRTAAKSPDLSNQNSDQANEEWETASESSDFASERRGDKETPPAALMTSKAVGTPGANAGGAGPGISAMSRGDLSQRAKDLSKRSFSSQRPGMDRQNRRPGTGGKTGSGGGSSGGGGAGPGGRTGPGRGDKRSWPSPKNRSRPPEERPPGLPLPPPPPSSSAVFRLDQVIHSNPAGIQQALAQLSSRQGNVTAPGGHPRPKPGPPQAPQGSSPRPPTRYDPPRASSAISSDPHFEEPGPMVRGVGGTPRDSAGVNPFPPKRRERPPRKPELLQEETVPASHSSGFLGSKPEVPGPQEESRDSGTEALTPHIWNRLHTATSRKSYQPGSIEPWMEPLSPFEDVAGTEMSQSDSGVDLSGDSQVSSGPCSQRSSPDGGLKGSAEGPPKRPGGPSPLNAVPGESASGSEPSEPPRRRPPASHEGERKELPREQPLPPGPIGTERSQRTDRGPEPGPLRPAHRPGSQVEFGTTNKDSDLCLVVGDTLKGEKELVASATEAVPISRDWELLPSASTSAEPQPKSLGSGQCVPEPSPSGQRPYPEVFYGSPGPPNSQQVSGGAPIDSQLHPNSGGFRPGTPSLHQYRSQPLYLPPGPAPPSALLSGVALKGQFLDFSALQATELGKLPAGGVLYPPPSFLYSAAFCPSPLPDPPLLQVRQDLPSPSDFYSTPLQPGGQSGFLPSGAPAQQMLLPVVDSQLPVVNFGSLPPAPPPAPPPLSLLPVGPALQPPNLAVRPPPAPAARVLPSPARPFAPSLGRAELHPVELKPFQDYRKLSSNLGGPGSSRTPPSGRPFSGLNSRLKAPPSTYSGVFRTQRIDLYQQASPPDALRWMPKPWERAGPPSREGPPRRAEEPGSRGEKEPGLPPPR"}, "Dmap1": {"target": "Dmap1 (UniProt Q9JI44)", "sequence (Q9JI44 whole entry)": "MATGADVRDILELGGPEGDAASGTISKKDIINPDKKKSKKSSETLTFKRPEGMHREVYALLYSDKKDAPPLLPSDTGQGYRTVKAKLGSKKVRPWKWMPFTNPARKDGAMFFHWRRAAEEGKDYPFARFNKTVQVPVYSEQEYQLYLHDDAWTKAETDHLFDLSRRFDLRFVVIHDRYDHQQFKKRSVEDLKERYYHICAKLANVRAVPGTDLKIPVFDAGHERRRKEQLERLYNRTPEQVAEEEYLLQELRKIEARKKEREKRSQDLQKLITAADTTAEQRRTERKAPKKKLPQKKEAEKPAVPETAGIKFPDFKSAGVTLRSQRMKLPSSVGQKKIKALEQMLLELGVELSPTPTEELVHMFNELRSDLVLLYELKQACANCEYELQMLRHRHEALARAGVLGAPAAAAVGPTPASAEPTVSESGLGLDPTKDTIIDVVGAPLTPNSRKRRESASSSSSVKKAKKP"}, "Prrc2c": {"target": "Prrc2c (UniProt Q3TLH4)"}, "Pusl1": {"target": "Pusl1 (UniProt A2ADA5)"}, "Mrpl46": {"target": "Mrpl46 (UniProt Q9EQI8)", "sequence (Q9EQI8 whole entry)": "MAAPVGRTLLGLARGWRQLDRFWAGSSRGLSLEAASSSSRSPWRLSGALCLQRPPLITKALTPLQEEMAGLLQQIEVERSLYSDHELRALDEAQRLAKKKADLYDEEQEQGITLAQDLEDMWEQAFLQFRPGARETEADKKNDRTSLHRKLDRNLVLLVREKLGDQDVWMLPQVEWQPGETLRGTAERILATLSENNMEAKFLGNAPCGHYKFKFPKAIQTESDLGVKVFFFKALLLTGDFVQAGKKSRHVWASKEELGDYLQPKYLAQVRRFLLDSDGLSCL"}, "Rbm42": {"target": "Rbm42 (UniProt Q91V81)", "sequence (Q91V81 2-478 limits assumed)": "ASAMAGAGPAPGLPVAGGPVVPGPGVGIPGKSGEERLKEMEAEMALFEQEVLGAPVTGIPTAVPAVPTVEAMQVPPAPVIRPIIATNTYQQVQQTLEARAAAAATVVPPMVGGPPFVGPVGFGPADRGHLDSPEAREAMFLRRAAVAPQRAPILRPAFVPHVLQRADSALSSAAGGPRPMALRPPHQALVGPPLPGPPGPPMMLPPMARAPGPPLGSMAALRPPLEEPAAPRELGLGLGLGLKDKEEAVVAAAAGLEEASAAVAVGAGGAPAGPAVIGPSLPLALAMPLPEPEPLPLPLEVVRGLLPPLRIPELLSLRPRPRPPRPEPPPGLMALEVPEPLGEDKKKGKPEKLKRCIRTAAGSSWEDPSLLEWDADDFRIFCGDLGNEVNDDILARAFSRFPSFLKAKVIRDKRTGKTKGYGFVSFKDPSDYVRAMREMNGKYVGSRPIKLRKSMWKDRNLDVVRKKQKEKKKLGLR"}},
  "data": [
    {"substance": "Tox (from UniProt Q66JW3 1-526)", "values": [
      {"measurement": "Abundance", "setting": "C1qc", "result": 0.000821},
      {"measurement": "MiST Score", "setting": "C1qc", "result": 0.976},
      {"measurement": "Reproducibility", "setting": "C1qc", "result": 0.943},
      {"measurement": "Specificity", "setting": "C1qc", "result": 1},
      {"measurement": "Abundance", "setting": "Utp14a", "result": "3.2e-06"},
      {"measurement": "MiST Score", "setting": "Utp14a", "result": 0.93},
      {"measurement": "Reproducibility", "setting": "Utp14a", "result": 0.792},
      {"measurement": "Specificity", "setting": "Utp14a", "result": 1},
      {"measurement": "Abundance", "setting": "Tox4; Tox3", "result": "1.98e-05"},
      {"measurement": "MiST Score", "setting": "Tox4; Tox3", "result": 0.936},
      {"measurement": "Reproducibility", "setting": "Tox4; Tox3", "result": 0.812},
      {"measurement": "Specificity", "setting": "Tox4; Tox3", "result": 1},
      {"measurement": "Abundance", "setting": "Rbm34", "result": "4.09e-05"},
      {"measurement": "MiST Score", "setting": "Rbm34", "result": 0.962},
      {"measurement": "Reproducibility", "setting": "Rbm34", "result": 0.895},
      {"measurement": "Specificity", "setting": "Rbm34", "result": 1},
      {"measurement": "Abundance", "setting": "Dnajc9", "result": "5.16e-05"},
      {"measurement": "MiST Score", "setting": "Dnajc9", "result": 0.961},
      {"measurement": "Reproducibility", "setting": "Dnajc9", "result": 0.892},
      {"measurement": "Specificity", "setting": "Dnajc9", "result": 1},
      {"measurement": "Abundance", "setting": "Kntc1", "result": "2.82e-06"},
      {"measurement": "MiST Score", "setting": "Kntc1", "result": 0.897},
      {"measurement": "Reproducibility", "setting": "Kntc1", "result": 0.686},
      {"measurement": "Specificity", "setting": "Kntc1", "result": 1},
      {"measurement": "Abundance", "setting": "Meaf6", "result": "5.46e-05"},
      {"measurement": "MiST Score", "setting": "Meaf6", "result": 0.968},
      {"measurement": "Reproducibility", "setting": "Meaf6", "result": 0.916},
      {"measurement": "Specificity", "setting": "Meaf6", "result": 1},
      {"measurement": "Abundance", "setting": "Rpl36; Gm8973", "result": 0.00269},
      {"measurement": "MiST Score", "setting": "Rpl36; Gm8973", "result": 0.928},
      {"measurement": "Reproducibility", "setting": "Rpl36; Gm8973", "result": 0.855},
      {"measurement": "Specificity", "setting": "Rpl36; Gm8973", "result": 0.969},
      {"measurement": "Abundance", "setting": "Nusap1", "result": "2.24e-05"},
      {"measurement": "MiST Score", "setting": "Nusap1", "result": 0.899},
      {"measurement": "Reproducibility", "setting": "Nusap1", "result": 0.966},
      {"measurement": "Specificity", "setting": "Nusap1", "result": 0.877},
      {"measurement": "Abundance", "setting": "Ccar1", "result": "1.49e-06"},
      {"measurement": "MiST Score", "setting": "Ccar1", "result": 0.962},
      {"measurement": "Reproducibility", "setting": "Ccar1", "result": 0.897},
      {"measurement": "Specificity", "setting": "Ccar1", "result": 1},
      {"measurement": "Abundance", "setting": "Rrp8", "result": "4.13e-06"},
      {"measurement": "MiST Score", "setting": "Rrp8", "result": 0.969},
      {"measurement": "Reproducibility", "setting": "Rrp8", "result": 0.919},
      {"measurement": "Specificity", "setting": "Rrp8", "result": 1},
      {"measurement": "Abundance", "setting": "Dlst", "result": 0.000104},
      {"measurement": "MiST Score", "setting": "Dlst", "result": 0.934},
      {"measurement": "Reproducibility", "setting": "Dlst", "result": 0.941},
      {"measurement": "Specificity", "setting": "Dlst", "result": 0.938},
      {"measurement": "Abundance", "setting": "Prrc2a", "result": "7.11e-07"},
      {"measurement": "MiST Score", "setting": "Prrc2a", "result": 0.916},
      {"measurement": "Reproducibility", "setting": "Prrc2a", "result": 0.862},
      {"measurement": "Specificity", "setting": "Prrc2a", "result": 0.948},
      {"measurement": "Abundance", "setting": "Dmap1", "result": "6.59e-06"},
      {"measurement": "MiST Score", "setting": "Dmap1", "result": 0.904},
      {"measurement": "Reproducibility", "setting": "Dmap1", "result": 0.709},
      {"measurement": "Specificity", "setting": "Dmap1", "result": 1},
      {"measurement": "Abundance", "setting": "Prrc2c", "result": "7.52e-07"},
      {"measurement": "MiST Score", "setting": "Prrc2c", "result": 0.905},
      {"measurement": "Reproducibility", "setting": "Prrc2c", "result": 0.71},
      {"measurement": "Specificity", "setting": "Prrc2c", "result": 1},
      {"measurement": "Abundance", "setting": "Pusl1", "result": "1.19e-05"},
      {"measurement": "MiST Score", "setting": "Pusl1", "result": 0.925},
      {"measurement": "Reproducibility", "setting": "Pusl1", "result": 0.776},
      {"measurement": "Specificity", "setting": "Pusl1", "result": 1},
      {"measurement": "Abundance", "setting": "Mrpl46", "result": "3.3e-05"},
      {"measurement": "MiST Score", "setting": "Mrpl46", "result": 0.982},
      {"measurement": "Reproducibility", "setting": "Mrpl46", "result": 0.962},
      {"measurement": "Specificity", "setting": "Mrpl46", "result": 1},
      {"measurement": "Abundance", "setting": "Rbm42", "result": "9.15e-06"},
      {"measurement": "MiST Score", "setting": "Rbm42", "result": 0.969},
      {"measurement": "Reproducibility", "setting": "Rbm42", "result": 0.919},
      {"measurement": "Specificity", "setting": "Rbm42", "result": 1}
    ]}
  ]
}
